Molecular target: T1, IL-17RB-3-Fc fusion protein (human)
T1 construct: Used as 5x concentrated conditioned medium; also called huIL-17RB-3 like-Fc; HIL17RB-3-Fc
Experiment: restates the competition assay of Example 8
Procedure: The conditioned media from 293E cells transfected to express IL-17E-Fc fusion protein (SEQ ID NO: 23), prepared as described in Example 7 above, was collected, concentrated and used for the binding assay. Specificity of ligand binding was determined by competition with soluble blocking receptors, either IL-17RB-2-Fc or IL-17RB-3-Fc fusion proteins (SEQ ID NOS: 22 or 23, respectively). IL-17R-Fc fusion protein (consisting of the extracellular domain of SEQ ID NO: 3) was purified from conditioned media collected from transfected 293E cells and used as a control. Conditioned media from 293E cells transfected with IL-17RB-2-Fc or IL-17-RB-3-Fc (deposited with the ATCC on Mar. 14, 2001 under Accession Nos. and respectively), as described in Example 6 above, was concentrated (5×) with an Amicon 3Kd cut-off Centracon (#4203) and used for blocking.
Prior to the binding assay, 0.5 ml of IL-17E-Fc fusion protein containing (1×) conditioned media was added into vials each containing 0.5 ml 5× conditioned media of IL-17RB-2-Fc, IL-17RB-3-Fc, or 0.5 ml of 5 μg/ml IL-17R-Fc protein in RPMI 1640. Each vial was incubated on ice for 2 hours.
Subsequently, GM3104A cells (1×10⁶ cells per sample) were incubated with 1 ml of 8% FBS/PBS, at 4° C. for 1 hour. […]

B1: recombinant human IL-17E-Fc fusion protein (Fc fusion)
chain: YSHWPSCCPSKGQDTSEELLRWSTVPVPPLEPARPNRHPESCRASEDGPLNSRAISPWRYELDRDLNRLPQDLYHARCLCPHCVSLQTGSHMDPRGNSELLYHNQTVFYRRPCHGEKGTHKGYCLERRLYRVSLACVCVRPRVMGEPKSADKTHTCPPCPAPELLGGPSVFLFPPKPKDTLMISRTPEVTCVVVDVSHEDPEVKFNWYVDGVEVHNAKTKPREEQYNSTYRVVSVLTVLHQDWLNGKEYKCKVSNKALPAPIEKTISKAKGQPREPQVYTLPPSRDELTKNQVSLTCLVKGFYPSDDIAVEWESNGQPENNYKTTPPVLDSDGSFFLYSKLTVDKSRWQQGNVFSCSVMHEALHNHYTQKSLSLSPGK
notes: Used as conditioned medium of transfected 293E cells; also called IL-17 like-Fc; rhIL-17 like-Fc
- binding result: binds
